For assay [1], the target named is T1, Pf-CD1 (Pyrococcus furiosus, UniProt Q8TZL6, DEL/LAST/OF/RESIDUES).
T1 construct: gene PF1974; C-terminal deletion (last 22 residues of Pf-Cpn removed); expressed in E. coli BL21(DE3) from pET33b; homo-hexadecamer (two octameric rings)
T1 sequence (Q8TZL6 1-527): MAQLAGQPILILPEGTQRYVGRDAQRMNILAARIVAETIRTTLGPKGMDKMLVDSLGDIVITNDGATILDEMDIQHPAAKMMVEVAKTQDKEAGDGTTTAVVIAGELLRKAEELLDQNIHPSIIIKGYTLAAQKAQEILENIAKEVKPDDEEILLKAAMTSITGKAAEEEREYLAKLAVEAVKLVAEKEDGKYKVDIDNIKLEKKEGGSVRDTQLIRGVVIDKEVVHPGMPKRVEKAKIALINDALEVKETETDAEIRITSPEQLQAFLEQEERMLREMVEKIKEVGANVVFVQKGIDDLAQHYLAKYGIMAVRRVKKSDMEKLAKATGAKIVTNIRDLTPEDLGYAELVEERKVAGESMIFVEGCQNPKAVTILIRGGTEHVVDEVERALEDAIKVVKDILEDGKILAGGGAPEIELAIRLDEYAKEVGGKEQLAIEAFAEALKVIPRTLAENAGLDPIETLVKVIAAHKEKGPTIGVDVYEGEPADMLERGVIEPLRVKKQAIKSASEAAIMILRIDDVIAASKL
The experiment in a line: isothermal titration calorimetry, one set of sites model. The assay is classed as binding. An excerpt: (§1) isothermal titration calorimetry, one set of sites model on Pf-CD1
On the technique in general: ITC needs no label: the signal is the heat of the interaction.

Assay [2] has as its target T2, Pf-CD1 (Pyrococcus furiosus, UniProt Q8TZL6, I138H).
T2 construct: gene PF1974; C-terminal deletion (last 22 residues of Pf-Cpn removed); expressed in E. coli BL21(DE3) from pET33b; homo-hexadecamer (two octameric rings)
The assay is described as above. It counts as binding.
Description: as §1

For assay [3], the target named is T3, Pf-CD1 (Pyrococcus furiosus, UniProt Q8TZL6, I138R).
T3 construct: gene PF1974; C-terminal deletion (last 22 residues of Pf-Cpn removed); expressed in E. coli BL21(DE3) from pET33b; homo-hexadecamer (two octameric rings)
The assay is described as above. It counts as binding.
Description: as §1

In assay [4] the target is Pf-CD1 Ile138Arg (Pyrococcus furiosus). The experiment in a line: ITC; dilution experiment, 18 successive injections, 25 °C; fit to a two-state hexadecamer-monomer equilibrium (hexadecamer to monomers); parameters per subunit.
The target in assay [5] is Pf-CD1 Ile138His (Pyrococcus furiosus). Described as above.
Assay [6] addresses Pf-CD1, Pyrococcus furiosus chaperonin subunit (Pf-Cpn) with the last 22 amino acids deleted (Pyrococcus furiosus). The assay is described as above.

One may read the Kd as the equilibrium constant for the complex coming apart. Read a high Kd as a looser complex. For the compound `Nc1ncnc2c1ncn2[C@@H]1O[C@H](COP(=O)(O)OP(=O)(O)OP(=O)(O)O)[C@@H](O)[C@H]1O` [ATP], the Kd in assay [1] stood at 320 ± 50 nM; in assay [2] it was 300 ± 20 nM; in assay [3], 200 ± 10 nM.
A word on the stoichiometry N: it is the number of molecules, sites or subunits per partner or assembly. In assay [4], Pf-CD1 Ile138Arg (domain or fragment) came in with an equilibrium dissociation constant (Kd) of 100 nM, a dH of dissociation (∆Hd) of -49 kcal/mol and a stoichiometry N of 16.
In assay [5], Pf-CD1 Ile138His (domain or fragment) displayed a Kd of 430 nM, a dH of dissociation (∆Hd) of -250 kcal/mol and a stoichiometry N of 16.
Turning to “Pf-CD1, Pyrococcus furiosus chaperonin subunit (Pf-Cpn) with the last 22 amino acids deleted (domain or fragment)”, in assay [6], the Kd was 310 nM, the dH of dissociation (∆Hd) was -350 kcal/mol and the stoichiometry N stood at 16.
